Data from the RNAGym collection of RNA variant scans (doi:10.7554/elife.80360).

B1: HDV Ribozyme (parent)
chain: GGCCGGCAUGGUCCCAGCCUCCUCGCUGGCGCCGGCUGGGCAACAUUCCGAGGGGACCGUCCCCUCGGUAAUGGCGAAUGGGACCCA

Variants of: B1
Assay: self-cleavage, relative activity (ratio to wild type); higher = more cleavage; co-transcriptional
G74A C75A gave a self-cleavage of 0.0528.
C24G A77U gave a self-cleavage of 0.111.
For C24U G54A, the self-cleavage was 0.779.
G2U G6C gave a self-cleavage of 0.106.
G59A C86U gave a self-cleavage of 0.793.
C24A U60G gave a self-cleavage of 0.678.
With U12A G50C the self-cleavage was 0.332.
Work on U46C A56U yielded a self-cleavage of 1.09.
In the case of G1C U60C, the self-cleavage is reported as 0.0639.
In the case of U46G A83C, the self-cleavage is reported as 0.293.
C30U C64A gave a self-cleavage of 0.422.
U37A C85U gave a self-cleavage of 0.259.
G35A U60A gave a self-cleavage of 0.596.
Work on C15A G50U yielded a self-cleavage of 0.674.
Work on A16U C66G yielded a self-cleavage of 1.26.
In the case of U79G G82A, the self-cleavage is reported as 0.0875.
C61U C86G gave a self-cleavage of 0.847.
C13U C85A showed a self-cleavage of 0.475.
A16C C33A gave a self-cleavage of 0.208.
C48G C75A gave a self-cleavage of 0.175.
A45C C86G gave a self-cleavage of 0.465.
Work on U9A U79C yielded a self-cleavage of 0.237.
Variant G5A U47C has a self-cleavage of 0.0615.
With G2U A77G the self-cleavage was 0.
Work on G11C U47G yielded a self-cleavage of 0.383.
In the case of A8U C21G, the self-cleavage is reported as 0.119.
A16G G50U showed a self-cleavage of 1.02.
With U23C G74C the self-cleavage was 0.277.
G50C C63G showed a self-cleavage of 0.135.
Work on C32G G73C yielded a self-cleavage of 0.12.
U9A U20C showed a self-cleavage of 0.128.
Variant G31A A51C has a self-cleavage of 0.396.
Variant U72A C85U has a self-cleavage of 0.764.
Work on C49A G74C yielded a self-cleavage of 0.0755.
Variant G40U G68A has a self-cleavage of 0.722.
For G5A U72A, the self-cleavage was 0.101.
Work on A16G A43U yielded a self-cleavage of 0.623.
With U12G C22G the self-cleavage was 0.
In the case of G39C U60A, the self-cleavage is reported as 0.481.
Variant C33U G40C has a self-cleavage of 0.286.
U9G U60C showed a self-cleavage of 0.748.
Work on C32U A56C yielded a self-cleavage of 1.12.
With C3U G38U the self-cleavage was 0.111.
Work on G81A G82U yielded a self-cleavage of 0.225.
Work on G68U A77U yielded a self-cleavage of 0.578.
Work on C63U A87C yielded a self-cleavage of 0.894.
C57U C85U showed a self-cleavage of 1.11.
Work on G5U G39U yielded a self-cleavage of 0.136.
Work on C19G A83U yielded a self-cleavage of 0.0504.
In the case of C3U C7A, the self-cleavage is reported as 0.205.
Work on G17C U60A yielded a self-cleavage of 0.575.
U9A G40A showed a self-cleavage of 1.02.
With C62G C63A the self-cleavage was 0.639.
Work on C13G C61A yielded a self-cleavage of 0.148.
C75A G82A gave a self-cleavage of 0.151.
For C36U A71C, the self-cleavage was 0.408.
Variant U27G G68U has a self-cleavage of 0.858.
In the case of U69A G81C, the self-cleavage is reported as 0.325.
Work on C26G U79A yielded a self-cleavage of 0.692.
G5A G74U gave a self-cleavage of 0.0326.
Work on G29C U72A yielded a self-cleavage of 0.
C44G U47A showed a self-cleavage of 0.653.
Variant C19A U37G has a self-cleavage of 0.151.
With G67U U79C the self-cleavage was 0.231.
Work on C13A G40U yielded a self-cleavage of 0.0326.
Variant C19G G74U has a self-cleavage of 0.0601.
Variant C26A G53A has a self-cleavage of 0.845.
For C15U A70G, the self-cleavage was 1.07.
G54A C66G gave a self-cleavage of 0.821.
In the case of C3U C41G, the self-cleavage is reported as 0.499.
In the case of C19G A56G, the self-cleavage is reported as 0.0639.
In the case of G34C G35A, the self-cleavage is reported as 0.115.
For U20G U46G, the self-cleavage was 0.
G28C A78C gave a self-cleavage of 0.0852.
A56G C64U showed a self-cleavage of 0.563.
In the case of U27A G31A, the self-cleavage is reported as 0.743.
Variant U12A C84G has a self-cleavage of 0.554.
In the case of G31A C41U, the self-cleavage is reported as 0.269.
G31A C41G showed a self-cleavage of 0.106.
For G29C G54A, the self-cleavage was 0.0773.
For C22A A56U, the self-cleavage was 0.323.
For U12G G35U, the self-cleavage was 0.104.
Variant C32U G35A has a self-cleavage of 0.326.
In the case of G39U C64A, the self-cleavage is reported as 0.649.
Work on C33U C58G yielded a self-cleavage of 0.929.
G59C C86U gave a self-cleavage of 1.01.
G35U G39U showed a self-cleavage of 0.0941.
Variant G29C C36U has a self-cleavage of 0.0755.
G10U U12G gave a self-cleavage of 0.172.
Work on U20C C75U yielded a self-cleavage of 0.
Variant G17U G52A has a self-cleavage of 0.509.
U27C A87C gave a self-cleavage of 0.595.
In the case of U12G C18U, the self-cleavage is reported as 0.361.
A42G A43C gave a self-cleavage of 0.158.
With U60C C63U the self-cleavage was 0.98.
In the case of U27G A42G, the self-cleavage is reported as 0.289.
With U27G A70G the self-cleavage was 1.14.
In the case of U46A A77G, the self-cleavage is reported as 0.646.
With G11A U72C the self-cleavage was 0.121.
C26A C33U gave a self-cleavage of 0.796.
G52A G73C showed a self-cleavage of 0.337.
For U23A C64G, the self-cleavage was 1.03.
Variant U37G C75G has a self-cleavage of 0.
G5A G17U gave a self-cleavage of 0.123.
G34U A70U showed a self-cleavage of 0.182.
C64U G82U gave a self-cleavage of 0.486.
Work on C19A C64U yielded a self-cleavage of 0.128.
In the case of C30A G67U, the self-cleavage is reported as 0.339.
For C30G C62U, the self-cleavage was 0.185.
With C21A C84A the self-cleavage was 0.
In the case of G11C C15A, the self-cleavage is reported as 0.0396.
C21U G39U gave a self-cleavage of 0.604.
With G35A A83G the self-cleavage was 0.258.
G2U G5C gave a self-cleavage of 0.
Work on C7A C19U yielded a self-cleavage of 0.0906.
With C18G A83G the self-cleavage was 0.0707.
C21U C84G showed a self-cleavage of 0.122.
C48A C64G showed a self-cleavage of 0.786.
Work on U9C G50C yielded a self-cleavage of 0.886.
In the case of U37G A42G, the self-cleavage is reported as 0.0723.
G25C G39U gave a self-cleavage of 0.0978.
G25C G39A showed a self-cleavage of 0.119.
With U9A C44A the self-cleavage was 0.831.
C18A U79A gave a self-cleavage of 0.138.
G59A U65C showed a self-cleavage of 1.14.
For A56C G68U, the self-cleavage was 1.08.
Variant A56C G68A has a self-cleavage of 1.11.
U20C C64A showed a self-cleavage of 0.145.
C19A A56C gave a self-cleavage of 0.173.
For A42C C61A, the self-cleavage was 0.312.
A42C C61U showed a self-cleavage of 0.199.
G34A C84U gave a self-cleavage of 0.142.
A42G A87U gave a self-cleavage of 0.479.
In the case of A42G A87C, the self-cleavage is reported as 0.521.
Work on G35A A77U yielded a self-cleavage of 0.253.
Variant A42G G82C has a self-cleavage of 0.0396.
Variant C3G C22U has a self-cleavage of 0.179.
For U37C A45G, the self-cleavage was 0.762.
For A43U C63U, the self-cleavage was 0.554.
In the case of C15G G54C, the self-cleavage is reported as 0.415.
In the case of C36U G80U, the self-cleavage is reported as 0.224.
For U20C U23C, the self-cleavage was 0.0723.
U27C C63G showed a self-cleavage of 0.639.
Variant G29A A77G has a self-cleavage of 0.095.
For C4G A8G, the self-cleavage was 0.346.
G11A A56U gave a self-cleavage of 0.487.
C49U C85U showed a self-cleavage of 0.799.
C58A U72A gave a self-cleavage of 0.883.
Variant U79C G82A has a self-cleavage of 0.133.
Work on U27A G50U yielded a self-cleavage of 0.99.
Variant G73C A83C has a self-cleavage of 0.264.
For C36G G81A, the self-cleavage was 0.0545.
In the case of C64G C86U, the self-cleavage is reported as 0.845.
With G1U A77C the self-cleavage was 0.494.
For G54A G80C, the self-cleavage was 0.0831.
With U47C A51C the self-cleavage was 0.776.
Variant G6C G25C has a self-cleavage of 0.
C21A G39C gave a self-cleavage of 0.113.
C19G U27C gave a self-cleavage of 0.0875.
U69A C85A showed a self-cleavage of 0.767.
U69A C85G gave a self-cleavage of 1.16.
With G25A G39U the self-cleavage was 0.0244.
Work on G2A G17A yielded a self-cleavage of 0.0604.
With C63A C84A the self-cleavage was 0.96.
In the case of C62A C75A, the self-cleavage is reported as 0.0314.
Variant C41U G67A has a self-cleavage of 0.439.
Work on G38A G50U yielded a self-cleavage of 0.157.
